Assay results as given in PMC3810306.
pKd: −log10 of the molar value.

Target: human CD47 IgSF domain (human)
Experiment: SPR

pKd	dissociation half-life (t1/2)	Substance
10.95	–	high-affinity SIRPα variant CV1 (consensus variant 1) monomer (designed binder)
6.30 to 6.52	1.8 s	wild-type human SIRPα allele 1 monomer (V-set Ig domain, domain 1) (domain or fragment)
